Data: patent EP4722254A1

Biological target: Recombinant Human-FGFR2-His protein (human) (UniProt P21802)
Assay: ELISA, Human-FGFR2-His coated, anti-human Fc-HRP detection

Chain of Recombinant Human-FGFR2-His protein (human) (P21802 other isoform, or with tags, fused parts or gaps limits assumed): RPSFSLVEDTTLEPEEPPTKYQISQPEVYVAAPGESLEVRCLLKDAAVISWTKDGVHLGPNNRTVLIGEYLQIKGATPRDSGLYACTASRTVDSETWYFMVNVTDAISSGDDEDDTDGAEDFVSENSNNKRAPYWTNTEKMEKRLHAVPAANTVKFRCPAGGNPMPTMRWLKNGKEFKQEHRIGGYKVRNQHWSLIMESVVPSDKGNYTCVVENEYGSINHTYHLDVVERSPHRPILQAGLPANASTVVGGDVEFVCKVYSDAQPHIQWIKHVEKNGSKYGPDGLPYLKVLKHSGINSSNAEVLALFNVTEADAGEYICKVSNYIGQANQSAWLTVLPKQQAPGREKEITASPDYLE

B1: anti-FGFR2/PD-1 bispecific antibody c (bispecific antibody, part only; not given: anti-PD-1 constant regions, part only)
heavy, part: EVKLVESGGGLVQPGGSLRLSCAASGFAFSSYDMSWVRQAPGKRLEWVATISGGGRYTYYPDTVKGRFTISRDNAKNSHYLQMNSLRAEDTAVYFCASPYGGYFDVWGQGTLVTVSSGGGGSGGGGSGGGGSQVQLVQSGAEVKKPGSSVKVSCKASGYTFTSYWMHWVRQAPGQGLEWMGAIYPGNSDTDYSGKFKGRVTITADESTSTAYMELSSLRSEDTAVYYCSKFDYWGQGTLVTVSSGGGGSGGGGSGGGGSGGGGSEIVLTQSPATLSLSPGERATLSCRASSSVNYMYWYQQKPGQAPRPWIYLTSNRATGVPARFSGSGSGTDYTLTISSLEPEDFAVYYCQQWSSNPYTFGQGTKLEIKRTV
light, part: EIVLTQSPATLSLSPGERATLSCRASQSISNFLHWYQQKPGQAPRLLIKYASQSISGIPARFSGSGSGTDFTLTISSLEPEDFAVYFCQQSNSWPHTFGQGTKVEIK
- EC50: 0.624 nM
